This is an account of results in patent US8030025B2.

Assay [1] addresses biotinylated human angiopoietin 1 (human) (UniProt Q15389). The assay can be described thus: HTRF neutralization; biotin-hAng1 vs huTie-2-Fc-APC.
In assay [2] the target is biotinylated human angiopoietin 2 (human) (UniProt O15123). Nature of the assay: HTRF neutralization; biotin-hAng2 vs huTie-2-Fc-APC.
The target of assay [3] is Cyno Ang1 (cynomolgus monkey). The assay can be described thus: neutralization ELISA; coated angiopoietin vs Tie2-Fc.
In assay [4] the target is Cyno Ang2 (cynomolgus monkey). The description is as above.
Assay [5] has as its target Human Ang1 (human) (UniProt Q15389). The assay is described as above.
In assay [6] the target is Human Ang2 (human) (UniProt O15123). The assay is described as above.
Assay [7] has as its target Murine Ang1 (mouse) (UniProt O08538). The description is as above.
For assay [8], the target named is Murine Ang2 (mouse) (UniProt O35608). Described as above.
Assay [9] concerns the target Rabbit Ang1 (rabbit) (UniProt G1SK98). The description is as above.
The target of assay [10] is Rabbit Ang2 (rabbit) (UniProt G1T9B3). The description is as above.
Assay [11] deals with biotinylated human angiopoietin 1 (human) (UniProt Q15389). The assay can be described thus: angiopoietin:Tie2 neutralization HTRF; biotin-hAng1 vs Tie2-APC.
In assay [12] the target is biotinylated human angiopoietin 2 (human) (UniProt O15123). Nature of the assay: angiopoietin:Tie2 neutralization HTRF; biotin-hAng2 vs Tie2-APC.
Assay [13] deals with Cyno Ang1 (cynomolgus monkey). Nature of the assay: angiopoietin:Tie2 neutralization ELISA; coated angiopoietin vs hTie2-Fc.
The target of assay [14] is Cyno Ang2 (cynomolgus monkey). Described as above.
Assay [15] has as its target Human Ang1 (human) (UniProt Q15389). Described as above.
Assay [16] concerns the target Human Ang2 (human) (UniProt O15123). The assay is described as above.
In assay [17] the target is Murine Ang1 (mouse) (UniProt O08538). The assay is described as above.
Assay [18] addresses Murine Ang2 (mouse) (UniProt O35608). Described as above.
The target of assay [19] is Rabbit Ang1 (rabbit) (UniProt G1SK98). The description is as above.
For assay [20], the target named is Tie2 in mouse lung endothelium (mouse) (UniProt Q02858).

“And” between values parts separate entries of the source, which are not always exact repeats. Identical values can stand only once. Where only a bound is given, the exact number is not on record here.

Consider AMG 386 (Fc fusion), for which the IC50 in assay [1] is 2.6 nM and 3.9 nM; in assay [2], 0.03 nM; in assay [3], 2.9 nM; in assay [4], 0.17 nM; in [5] it was 1.2 nM; in assay [6], 0.12 nM. For the same substance, the IC50 in assay [7] stood at 2.7 nM; in assay [8], 0.1 nM; in [9], 4.3 nM; in assay [10], 0.1 nM; in assay [11], 6.2 nM; in assay [12] it was 0.029 nM. Also, the IC90 in [1] was 106 nM and 278 nM; in assay [2], 0.13 nM and 0.15 nM.
Regarding Fc, the IC50 in assay [11], in assay [12], in assay [13], in assay [14], in assay [15] and in [16] was greater than 10000 nM in each case. The IC50 in [17], in [18] and in assay [19] was greater than 10000 nM in each case.
As to L1-7(N) (Fc fusion), the values for the IC50 in assay [11] and in assay [12] were greater than 10000 nM and 0.064 nM, respectively.
“recombinant Ang1 (R&D Systems Inc.) (ligand)”: the Tie2 phosphorylation in mouse lung endothelium in [20] was 5 fold.
